In patent US20140328841A1 (BRIGHAM AND WOMEN S HOSPITAL, published 2014) one finds number printed in the same gate of the dot plot, binding result and number printed in the hCEACAM1 (5F4)-positive gate of the dot plot data, which are given here for 2 molecules.

For assay [1], the target named is T1, mouse CEACAM1 (mouse, UniProt P31809 35-521, limits assumed).
T1 sequence (looked up): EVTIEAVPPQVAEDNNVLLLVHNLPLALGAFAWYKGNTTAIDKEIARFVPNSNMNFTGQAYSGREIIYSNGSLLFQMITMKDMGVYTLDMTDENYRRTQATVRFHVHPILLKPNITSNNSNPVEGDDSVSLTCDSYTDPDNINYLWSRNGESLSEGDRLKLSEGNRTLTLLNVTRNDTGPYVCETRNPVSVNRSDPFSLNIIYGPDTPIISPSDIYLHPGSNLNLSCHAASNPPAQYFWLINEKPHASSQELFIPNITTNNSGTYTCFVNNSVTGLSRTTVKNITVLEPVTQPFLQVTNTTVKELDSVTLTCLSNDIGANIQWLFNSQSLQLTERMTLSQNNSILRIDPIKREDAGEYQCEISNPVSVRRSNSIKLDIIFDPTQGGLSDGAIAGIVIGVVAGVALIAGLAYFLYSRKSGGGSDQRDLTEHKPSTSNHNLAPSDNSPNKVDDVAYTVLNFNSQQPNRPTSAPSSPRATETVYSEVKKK
Briefly: flow cytometry dot plot (x: mIgG1 CONTROL, y: FITC). Cells of the 5F4-treated mouse group, isotype control staining for the 5F4 panel above it. Background: A flow cytometer gives signals particle by particle.

The target in assay [2] is human CEACAM1 (human) (UniProt P13688). Description: flow cytometry dot plot (x: mIgG1 CONTROL, y: FITC). Cells of the MOPC-treated mouse group, isotype control staining for the 5F4 panel above it.
Assay [3] deals with T1, mouse CEACAM1. Briefly: flow cytometry, 5F4 staining of lymph node cells of the 5F4-treated mouse group (mouse cells; per the legend no human CEACAM1+ cells present).
Assay [4] addresses human CEACAM1 (human) (UniProt P13688). Briefly: flow cytometry dot plot (x: hCEACAM1 (5F4), y: FITC). Per the legend, axillary lymph node cells of an MOPC-treated Rag2-/- mouse 2 weeks after s.c. AsPc-1 inoculation. Gated events spread from about 10^3 to above 10^4 on the x axis. The panel is marked *.

human CEACAM1 (human), sequence (P13688 35-526): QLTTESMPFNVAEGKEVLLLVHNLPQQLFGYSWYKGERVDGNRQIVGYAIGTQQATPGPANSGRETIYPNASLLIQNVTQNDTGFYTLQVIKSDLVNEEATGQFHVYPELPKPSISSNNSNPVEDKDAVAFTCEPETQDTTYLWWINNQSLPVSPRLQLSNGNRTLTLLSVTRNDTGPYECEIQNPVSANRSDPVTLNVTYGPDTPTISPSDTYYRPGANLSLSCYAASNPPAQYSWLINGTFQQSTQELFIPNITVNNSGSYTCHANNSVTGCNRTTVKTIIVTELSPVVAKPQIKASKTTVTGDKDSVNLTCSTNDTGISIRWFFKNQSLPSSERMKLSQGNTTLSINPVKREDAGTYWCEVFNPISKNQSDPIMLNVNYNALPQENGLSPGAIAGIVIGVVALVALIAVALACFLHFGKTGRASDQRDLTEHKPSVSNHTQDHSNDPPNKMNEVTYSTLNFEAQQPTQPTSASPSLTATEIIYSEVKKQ

As to mIgG1 CONTROL (antibody), the number printed in the same gate of the dot plot with mouse CEACAM1 [1] turned out to be 1.27; with human CEACAM1 (human) [2], 0.667.

B1: 5F4 mouse anti-human CEACAM1 monoclonal antibody (hybridoma 5F4/2C6/2H3) (antibody, mouse IgG1, V domains shown)
VH: EVQLVESGGDLVKPGGSLKLACAASGFIFSSHGMSWVRQTPDKRLEWVATISSGGTYTYYPDSVKGRFTISRDNDKNTLYLQMNSLKSEDTAMYYCARHDFDYDAAWFAYWGQGTLVTVSA
VL: QIVLTQSPALMSASPGVKVTMTCSANSSVSYMYWYRQKPRSSPKPWIYLTSNLASGVPARFSGSGSGTSYSLTISSMEAEDAATYYCQQWSSNPPTFGSGTKLEIK
notes: also called 5F4 antibody; 5F4 monoclonal antibody
As to B1, the binding result in the assay with mouse CEACAM1 [3] was “no binding”. Moreover, the number printed in the hCEACAM1 (5F4)-positive gate of the dot plot with human CEACAM1 (human) [4] came out at 2.15.
